Among the data in patent US20130310313A1 are activity of insulin receptor tyrosine kinase values, retold here.

The assay addresses insulin receptor (insulin receptor tyrosine kinase assay). As to the kind of experiment: cell-based or functional assay.

B1: IRBP-9C (SEQ ID NO:192) (peptide)
peptide: RYKYQWWYI
For B1, the activity of insulin receptor tyrosine kinase was 44.2 U/ml.

B2: IRBP-9A (SEQ ID NO:190) (peptide)
peptide: RYKYQWFYI
Turning to B2, the activity of insulin receptor tyrosine kinase stood at 40.3 U/ml.

B3: IRBP-9B (SEQ ID NO:191) (peptide)
peptide: RYKYQCFYI
B3: the activity of insulin receptor tyrosine kinase was 79.8 U/ml.

B4: IRBP-9D (SEQ ID NO:193) (peptide)
peptide: RYKYQCWYI
As for B4, the activity of insulin receptor tyrosine kinase was determined as 66 U/ml.
